In US20200188479A1 (INTARCIA THERAPEUTICS, published 2020):
Ends that are not written are not given here.

Biological target: fraction V human serum albumin (human, UniProt P02768 25-609)
Assay: cell-based or functional assay

fraction V human serum albumin, sequence (P02768 25-609 limits assumed): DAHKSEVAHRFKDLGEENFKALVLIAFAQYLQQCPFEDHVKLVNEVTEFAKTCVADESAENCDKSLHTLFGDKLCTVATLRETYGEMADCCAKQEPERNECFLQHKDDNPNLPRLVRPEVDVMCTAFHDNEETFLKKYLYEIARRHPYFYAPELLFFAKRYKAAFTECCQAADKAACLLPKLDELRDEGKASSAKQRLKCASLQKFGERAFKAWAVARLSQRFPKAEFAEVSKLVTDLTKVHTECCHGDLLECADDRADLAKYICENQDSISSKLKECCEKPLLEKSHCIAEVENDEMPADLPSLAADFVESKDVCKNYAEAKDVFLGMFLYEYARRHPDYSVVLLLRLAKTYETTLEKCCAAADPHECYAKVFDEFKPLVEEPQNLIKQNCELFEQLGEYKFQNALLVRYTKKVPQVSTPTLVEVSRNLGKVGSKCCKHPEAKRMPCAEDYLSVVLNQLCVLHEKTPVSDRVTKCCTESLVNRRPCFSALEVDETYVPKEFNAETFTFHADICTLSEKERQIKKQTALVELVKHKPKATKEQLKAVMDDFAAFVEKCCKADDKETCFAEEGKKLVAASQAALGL

Row | albumin-mediated change in potency for activation of GLP-1 receptors at 4% HSA versus 0.1% HSA | potency shift in 4% vs 0.1% albumin (cAMP accumulation in hGLP1R-expressing CHO-K1 cells) | fold decrease in potency shift in 4% vs 0.1% albumin (cAMP accumulation in hGLP1R-expressing CHO-K1 cells) | reduction in potency in 4% vs 0.1% albumin, relative to the effect observed with GLP-1[7-36]NH2 | Binder
1 | 0.54 fold (×) | 1.8 fold | – | – | HAEGTFTSDVSSYLEGQAAKEFIAWLVKGR-NH2 [human GLP-1[7-36]NH2]
2 | – | – | 19.9 fold | 36.8 fold | HXEGTFTSDVSSYLEGQAAKEFIAWLVRGRG (Aib in position 8 (GLP-1 numbering); Lys carries N6-[N-(17-carboxy-1-oxoheptadecyl-L-c-glutamyl[2-(2-aminoethoxy)ethoxy]acetyl[2-(2-aminoethoxy)ethoxy]acetyl] residue (as printed in paragraph 217))) [semaglutide]
